Several values for one entry are separate records, joined by “and”; a condition that tells them apart may be missing. Identical values can stand only once.
Biological target: the molecule itself
Test: SEC; Superose 6 gel filtration of purified PAN, before heating

B1: PAN (proteasome activating nucleotidase) unfoldase from Methanocaldococcus jannaschii (enzyme, UniProt Q58576 1-430, looked up)
chain: MVFEEFISTELKKEKKAFTEEFKEEKEINDNSNLKNDLLKEELQEKARIAELESRILKLELEKKELERENLQLMKENEILRRELDRMRVPPLIVGTVVDKVGERKVVVKSSTGPSFLVNVSHFVNPDDLAPGKRVCLNQQTLTVVDVLPENKDYRAKAMEVDERPNVRYEDIGGLEKQMQEIREVVELPLKHPELFEKVGIEPPKGILLYGPPGTGKTLLAKAVATETNATFIRVVGSELVKKFIGEGASLVKDIFKLAKEKAPSIIFIDEIDAIAAKRTDALTGGDREVQRTLMQLLAEMDGFDARGDVKIIGATNRPDILDPAILRPGRFDRIIEVPAPDEKGRLEILKIHTRKMNLAEDVNLEEIAKMTEGCVGAELKAICTEAGMNAIRELRDYVTMDDFRKAVEKIMEKKKVKVKEPAHLDVLYR
notes: Purified as a mixture of dodecamers and hexamers; Monodisperse hexamers were obtained after heating at 60 °C with ATP and MgCl2; Perdeuterated PAN (dPAN) was used for the SANS data on PAN; also called MjPAN; PAN complex
With B1 the “stoichiometry N” value was 12 and 6.

From publication PMC5244417, “Time-resolved neutron scattering provides new insight into protein substrate processing by a AAA+ unfoldase” (Scientific Reports, 2017)
